Measurements reported in patent publication US6379670B1, “Methods for treatment of multiple sclerosis using peptide analogs of human myelin basic protein” (Neurocrine Biosciences, Inc., priority 1994, dated 2002).
Blank lines part the entries; values can stand above or below the molecule they belong to.

Columns and labels:
Lewis rats = assay: Induction of EAE by peptide analog; type: in vivo, rat
Protocol: In addition, as a safety measure, but not essential to this invention, suitable peptide analogs may be tested for direct induction of EAE. As described in detail in Example 2, various amounts of peptide analogs are injected at the base of the tail of rats, and the rats examined daily for signs of EAE. A peptide analog which is not considered to cause EAE has a mean cumulative score of less than or equal to 1 over seven days when about 12 mg/kg or less in complete Freund's adjuvant is injected.
MBP peptide and peptide analogs were dissolved in phosphate-buffered saline (PBS) and emulsified with an equal volume of incomplete Freund's adjuvant supplemented with 4 mg/ml heat-killed Mycobacterium tuberculosis H37Ra in oil (Difco Laboratories, Inc., Detroit, Mich.). Rats were immunized subcutaneously at the base of the tail with 0.1-0.2 ml containing 500 μg of peptide in the emulsion and were monitored for clinical signs daily. EAE was scored on a scale of 0-4, as follows: 0, clinically normal; 1, flaccid tail; 2, hind limb weakness; 3, hind limb paralysis; 4, front and hind limbs affected.
The ability of peptide analogs to cause EAE is assessed in vivo. Rats were injected with MBP (87-99) or h88/A91 peptide analog as described in Example 2. Animals were monitored daily for evidence of EAE. Rats receiving MBP (87-99) had 100% incidence (18/18 rats) of EAE with a mean maximum clinical score of 2.4±0.2. In contrast, 0/12 rats receiving the peptide analog h88/A91 had EAE.

[1] = system: Dr2b-restricted T cell clone 5F6; assay: Cytokine production (TNF-α, IFN-γ) by T cell clone 5F6, EIA; type: cell-based, human; conditions: 3 μM MBP peptide, 24 hours, FIG. 21
Protocol: As discussed in detail below, the production of cytokines may also be assessed. In particular, TNF-α and IFN-γ production are especially interesting. These pro-inflammatory cytokines are thought to play a role in the pathogenesis of the disease. Briefly, T cell clone is incubated in the presence of stimulating MBP peptide and peptide analog or control peptide (SWM) or medium only. After a 24 hour incubation, the levels of TNF-α and IFN-γ in the supernatant are determined using commercially available EIA kits (Endogen, Cambridge, Mass.).
The ability of the peptide analog ligand to influence cytokine production was next measured. The Dr2b-restricted T cell clone 5F6 was incubated in the presence of 3 μM MBP peptide with either 10 μM of NBI-5788 (SEQ ID NO:7) or SWM or medium only. As a control, cells were cultured in the presence of medium alone. After 24 hours, supernatants were removed and the levels of tumor necrosis factor alpha (TNF-α) and interferon-y (IFN-γ) determined using commercially available EIA kits.

[2] = system: T cell lines LW 80, 88, 90 and 93; assay: Specificity and phenotype of APL-reactive T cell lines from patient; type: cell-based, human; conditions: 25 μg/ml antigen
Protocol: Four cell cultures from one patient ([…], 32% frequency) showing a response (> three-fold over background) were expanded into cell lines (LW 80, 88, 90 and 93) by incubation in IL-2 for 11-14 days (1-2 passages). Once sufficient cells had grown up, they were cultured with either medium alone or 25 μg/ml of either whole MBP, MBP (83-99) or APL NBI-5788. After 24 hours, the supernatants were collected and the level of cytokines determined (see FIGS. 22 to 26). The remaining cultures were pulsed with radiolabeled thymidine and the extent of incorporation determined.

[3] = system: peripheral blood mononuclear cells; assay: Frequency of antigen-reactive T cells in PBMC of untreated MS patients and healthy donors (split-well); type: cell-based, human; parameters: mean frequency of antigen-reactive T cells / frequency of antigen-reactive T cells in healthy subjects / antigen-reactive T cells, % Positive: concentration or dose not given beside the values
Protocol: Immune response to the peptide analog was assessed by measuring the frequency of proliferating peripheral blood T cells using a split-well microtiter method (i.e., number of positive wells {Δ cpm >1000, stimulation index>3} divided by the total number of wells assayed). Peripheral blood mononuclear cells (PBMC) were isolated from venous blood by Ficoll-Hypaque density gradient centrifugation, washed twice and resuspended in complete tissue culture medium (Iscove's modification of Dulbecco's medium containing 10% heat-inactivated, pooled, human A-B serum, 2 mM L-glutamine, 100 U/ml penicillin/streptomycin and 50 μg/ml gentamycin). PBMC from each patient were seeded at 10^5/well in 96 well, U-bottom microtiter plates containing 25 μg/ml whole MBP, 10 μg/ml NBI-5788 or medium alone in a volume of 200 μl. Three days later supernatants were collected and frozen at −80° C. and fresh medium containing IL-2 (10 U/ml) was added. IL-2-containg medium was refreshed on Day 7 and Day 11. On Day 14, the frequency of antigen response was determined by the “split well” technique. Briefly, cells from one primary well were split into replicate experimental wells in the presence of 10^5 freshly isolated autologous, irradiated peripheral blood mononuclear cells (APCs): one containing the original antigen (25 μg/ml) and one without antigen. Two days later supernatants were collected and the wells pulsed with 1 µCi/well [^3H]-thymidine ([…]) for the final 18 hours of culture. ^3H-Thymidine uptake was measured in a beta counter. […] The association between T cell frequency and NBI-5788 treatment was evaluated by χ^2 contingency analysis.

[4] = system: NBI-5788-reactive or MBP-reactive T cell lines from MS patients; assay: Cross-reactivity of T cell lines (TCL) from MS patients, 3H-thymidine proliferation; type: cell-based, human
Protocol: To evaluate the degree of NBI-5788-specific reactivity induced by NBI-5788 treatment, we determined whether NBI-5788-reactive T cell lines generated from untreated or NBI-5788-treated patients cross-reacted with whole MBP or MBP peptide 83-99. T cell lines were generated from positive cultures in the frequency analysis by an additional cycle of co-culture with antigen. Specificity of positive lines was tested by culturing 2×10^4 T cells/well in triplicate with whole MBP, MBP83-99, NBI-5788 or medium alone in the presence of 10^5 APCs in a final volume of 200 μl/well. Two days later supernatants were pooled from replicate wells and frozen at −80° C. Wells were then pulsed with [^3H]-thymidine (1 μCi/well) for the final 18 hours of culture.

[5] = rats injected with 500 μg peptide in adjuvant
[6] = subject MS-2, untreated MS patient
[7] = subject MS-3, untreated MS patient
[8] = subject MS-7, untreated MS patient
[9] = subject MS-8, untreated MS patient
[10] = subject MS-9, untreated MS patient
[11] = subject MS-10, untreated MS patient
[12] = subject MS-11, untreated MS patient
[13] = patient MS-1, dose 20 mg, TCL 4

rats with EAE / rats injected (Lewis rats; [5]): 18/18
mean maximum clinical score (Lewis rats; scale 0-4): 2.4±0.2
Molecule: CC[C@H](C)[C@H](NC(=O)[C@H](CC(N)=O)NC(=O)[C@H](CCCCN)NC(=O)[C@H](Cc1ccccc1)NC(=O)[C@H](Cc1ccccc1)NC(=O)[C@H](Cc1c[nH]cn1)NC(=O)[C@@H](N)C(C)C)C(=O)N[C@H](C(=O)N[C@H](C(=O)N1CCC[C@H]1C(=O)N[C@@H](CCCNC(=N)N)C(=O)N[C@H](C(=O)N1CCC[C@H]1C(=O)O)[C@@H](C)O)[C@@H](C)O)C(C)C [MBP (87-99)]
incidence of EAE (Lewis rats; [5]): 100%

induction of EAE by the peptide (Lewis rats; rat, in vivo): does not induce EAE
rats with EAE / rats injected (Lewis rats; [5]): 0/12
Molecule: CC[C@H](C)[C@H](NC(=O)[C@H](CC(N)=O)NC(=O)[C@H](C)NC(=O)[C@H](Cc1ccccc1)NC(=O)[C@H](Cc1ccccc1)NC(=O)[C@@H](Cc1c[nH]cn1)NC(=O)[C@@H](N)C(C)C)C(=O)N[C@H](C(=O)N[C@H](C(=O)N1CCC[C@H]1C(=O)N[C@@H](CCCNC(=N)N)C(=O)N[C@H](C(=O)N1CCC[C@H]1C(=O)O)[C@@H](C)O)[C@@H](C)O)C(C)C [h88/A91]

B1: Whole MBP: whole human myelin basic protein (protein, UniProt P02686 1-304, looked up)
Myelin basic protein: MGNHAGKRELNAEKASTNSETNRGESEKKRNLGELSRTTSEDNEVFGEADANQNNGTSSQDTAVTDSKRTADPKNAWQDAHPADPGSRPHLIRLFSRDAPGREDNTFKDRPSESDELQTIQEDSAATSESLDVMASQKRPSQRHGSKYLATASTMDHARHGFLPRHRDTGILDSIGRFFGGDRGAPKRGSGKDSHHPARTAHYGSLPQKSHGRTQDENPVVHFFKNIVTPRTPPPSQGKGRGLSLSRFSWGAEGQRPGFGYGGRASDYKSAHKGFKGVDAQGTLSKIFKLGGRDSRSGSPMARR
IFN-γ production [1]: ~160 pg/mL
thymidine incorporation of T cell line ([2]; Line 80 of patient): 1,457 ± 195 cpm
thymidine incorporation of T cell line ([2]; Line 88 of patient): 977 ± 121 cpm
thymidine incorporation of T cell line ([2]; Line 90 of patient): 1,604 ± 328 cpm
thymidine incorporation of T cell line ([2]; Line 93 of patient): 630 ± 28 cpm
antigen-reactive T cells, Positive/total wells ([3]; Total of healthy donors): 3/96
antigen-reactive T cells, Positive/total wells ([3]; Total of untreated MS patients): 56/312
antigen-reactive T cells, % Positive ([3]; healthy donor HD-1): 6.3%
antigen-reactive T cells, Positive/total wells ([3]; healthy donor HD-1): 3/48
antigen-reactive T cells, % Positive ([3]; healthy donor HD-2): 0%
antigen-reactive T cells, Positive/total wells ([3]; healthy donor HD-2): 0/48
antigen-reactive T cells, % Positive [3, 6]: 6.8%
antigen-reactive T cells, Positive/total wells [3, 6]: 3/44
antigen-reactive T cells, % Positive [3, 7]: 25.0%
antigen-reactive T cells, Positive/total wells [3, 7]: 11/44
antigen-reactive T cells, % Positive [3, 8]: 11.4%
antigen-reactive T cells, Positive/total wells [3, 8]: 5/44
antigen-reactive T cells, % Positive [3, 9]: 52.3%
antigen-reactive T cells, Positive/total wells [3, 9]: 23/44
antigen-reactive T cells, % Positive [3, 10]: 16.7%
antigen-reactive T cells, Positive/total wells [3, 10]: 8/48
antigen-reactive T cells, % Positive [3, 11]: 2.3%
antigen-reactive T cells, Positive/total wells [3, 11]: 1/44
antigen-reactive T cells, % Positive [3, 12]: 11.4%
antigen-reactive T cells, Positive/total wells [3, 12]: 5/44
frequency of antigen-reactive T cells in healthy subjects ([3]; two healthy subjects, MBP-reactive cells detected in one of two): 6.3%
mean frequency of antigen-reactive T cells ([3]; untreated MS patients (n=7)): 18.0±6.3%
proliferative response of MBP-reactive TCL to antigen ([4]; patient MS-1, dose 20 mg, TCL 2): 25,700 ± 5,266
proliferative response of MBP-reactive TCL to antigen [4, 13]: 9,498 ± 745
proliferative response of NBI-5788-reactive TCL to antigen [4, 13]: 772 ± 341
proliferative response of MBP-reactive TCL to antigen ([4]; patient MS-1, dose 20 mg, TCL 5): 13,102 ± 1,286
proliferative response of MBP-reactive TCL to antigen ([4]; patient MS-1, dose 20 mg, TCL 10): 54,562 ± 207
proliferative response of MBP-reactive TCL to antigen ([4]; patient MS-1, dose 20 mg, TCL 14): 23,564 ± 854
proliferative response of MBP-reactive TCL to antigen ([4]; patient MS-1, dose 20 mg, TCL 26): 48,157 ± 1,207
proliferative response of NBI-5788-reactive TCL to antigen ([4]; patient MS-1, dose 20 mg, TCL 36): 2,515 ± 532
proliferative response of MBP-reactive TCL to antigen ([4]; patient MS-1, dose 20 mg, TCL 45): 63,810 ± 1,117
proliferative response of MBP-reactive TCL to antigen ([4]; patient MS-2, dose 20 mg, TCL 14): 16,000 ± 1,133
proliferative response of MBP-reactive TCL to antigen ([4]; patient MS-3, Pretreat., TCL 9): 9,736 ± 247
proliferative response of NBI-5788-reactive TCL to antigen ([4]; patient MS-3, dose 20 mg, TCL 2): 1,785 ± 66
proliferative response of NBI-5788-reactive TCL to antigen ([4]; patient MS-3, dose 20 mg, TCL 4): 298 ± 41
proliferative response of NBI-5788-reactive TCL to antigen ([4]; patient MS-3, dose 20 mg, TCL 18): 437 ± 191
proliferative response of NBI-5788-reactive TCL to antigen ([4]; patient MS-3, dose 20 mg, TCL 30): 557 ± 210
proliferative response of MBP-reactive TCL to antigen ([4]; patient MS-4, dose 20 mg, TCL 7): 5,308 ± 1,269
proliferative response of NBI-5788-reactive TCL to antigen ([4]; patient MS-4, dose 20 mg, TCL 18): 5,983 ± 5602
proliferative response of NBI-5788-reactive TCL to antigen ([4]; patient MS-5, dose 20 mg, TCL 15): 13,151 ± 9,967
proliferative response of NBI-5788-reactive TCL to antigen ([4]; patient MS-5, dose 20 mg, TCL 39): 6,717 ± 558
proliferative response of NBI-5788-reactive TCL to antigen ([4]; patient MS-5, dose 20 mg, TCL 43): 3,584 ± 1,068
proliferative response of NBI-5788-reactive TCL to antigen ([4]; patient MS-6, dose 10 mg, TCL 22): 2,167 ± 53
proliferative response of NBI-5788-reactive TCL to antigen ([4]; patient MS-6, dose 10 mg, TCL 38): 935 ± 65
proliferative response of NBI-5788-reactive TCL to antigen ([4]; patient MS-7, dose 5 mg, TCL 12): 1,343 ± 498
proliferative response of NBI-5788-reactive TCL to antigen ([4]; patient MS-7, dose 5 mg, TCL 28): 2,326 ± 1,300
proliferative response of MBP-reactive TCL to antigen ([4]; patient MS-7, dose 5 mg, TCL 46): 17,019 ± 2,294
proliferative response of MBP-reactive TCL to antigen ([4]; patient MS-8, Placebo, TCL 26): 68,704 ± 19,348
proliferative response of MBP-reactive TCL to antigen ([4]; patient MS-8, Placebo, TCL 28): 47,279 ± 4,539
proliferative response of MBP-reactive TCL to antigen ([4]; patient MS-8, Placebo, TCL 38): 63,253 ± 5,006
proliferative response of MBP-reactive TCL to antigen ([4]; patient MS-8, Pretreat., TCL 22): 91,447 ± 3,378
proliferative response of MBP-reactive TCL to antigen ([4]; patient MS-8, Pretreat., TCL 31): 7,379 ± 123
proliferative response of MBP-reactive TCL to antigen ([4]; patient MS-8, Pretreat., TCL 47): 47,975 ± 10,326
